What was measured:
miR-128-2−/− mice = assay: Survival of miR-128-2-/- mice under anticonvulsant treatment (Kaplan-Meier survival curves); type: in vivo; conditions: sodium valproate 0.26% w/v in drinking water, oral, n=11
[1] = test system: Dravet-syndrome mice (Scn1a or Gabrg2 deficient mice); assay: Ectopic miR-128 overexpression in Dravet-syndrome mouse models (Scn1a or Gabrg2 deficient mice); type: in vivo; conditions: supplied into neurons of the hippocampus or thalamus; Dravet-like syndrome mice
Source text: The inventors of the instant disclosure ectopically overexpress miR-128 in mouse models of severe human generalized childhood epilepsy such as the Dravet-syndrome (Scn1a or Gabrg2 deficient mice) to establish the efficacy of miR-128 in averting seizures in these mice. Mice with a loss of Scna1 and Gabrg2 display spontaneous seizures and ataxia beginning in the fourth postnatal week followed by premature death from seizure-related cause. Applicants test the effects of miR-128 overexpression on seizure development and survival in three to four week old Dravet-syndrome mice. The ability of genetic miR-128 overexpression in postnatal forebrain neurons to protect mice against spontaneous seizure development is also tested. Secondly, Applicants test the seizure-suppressing ability of oligonucleotide or AAV-based miR-128 overexpression in different brain regions (striatum, temporal cortex, hippocampus, mediodorsal thalamus) to determine whether there are specific locations that can short-circuit brain-wide seizures due to local miR-128 overexpression. Ectopically supplied miR-128 into the neurons of the hippocam pus or thalamus protects mice suffering from Dravet-like syndrome against spontaneous recurrent seizures and premature death.

[2] = test system: primary striatal neuron cultures; assay: Gene expression (TaqMan qRT-PCR) in BDNF-treated primary striatal neuron cultures; type: cell-based, mouse; conditions: 0.05 ng/ul BDNF, day 10 in vitro; 0, 2, 6 and 24 hours
Procedure: Primary striatal neuron cultures obtained from E18 mouse brain were treated on day 10 in vitro with 0.05 ng/ul brain-derived neurotrophic factor (BDNF) in water. RNA from cultures was prepared at 0, 2, 6 and 24 hours after stimulation and gene expression change were analyzed using the Tagman qRT-PCR assay. […] Data are shown as mean, error bars represent s.e.m., p-value was determined by 2-way ANOVA, FosB treatment 0.0014, time <0.0001. 124a treatment 0.1091, time 0.0861, Arpp21 treatment 0.0064, time 0.0190. miR-128-2 treatment 0.0160, time 0.2097.
Relative expression levels of mature miRNAs and mRNAs were measured by TaqMan assays using total extracted RNA from brain samples, according to manufacturer's protocol (Life Technologies, Carlsbad, Calif.). Purified RNA samples were assayed by qRT-PCR for relative gene expression using pre-designed TaqMan gene expression assays from Applied Biosystems (ABI) as recommended by the manufacture. The following pre-designed TaqMan gene expression assays from Applied Biosystems (ABI) were used: miR-128 (Assay ID 002216), sno135 (Assay ID 001230), miR-124a (Assay ID 001182), Fosb Mm00500401_m1, Fosl2 Mm00484442_m1, Arc Mm00479619_g1, JunB Mm04243546_s1, Darpp-32 Mm00454892_m1, Btg2 Mm00476162_m1, Gadd45g Mm01352550_g1, Dusp1 Mm00457274_g1, Nr4a1 Mm01300401_m1, Jun Mm00495062_s1, Actb Mm00607939_s1, Arpp-21 Mm00473630_m1 (exon spanning probe detects exons that are common to all Arpp-21 isoforms), Arpp21 Mm00473645_m1 (exon spanning probe that specifically detects the long TARPP-isoform of Arpp-21). Cycle counts for miRNA quantification were normalized to snoRNA135 or miR-124a as indicated, and cycle counts for mRNA quantification were normalized to Actb or Gapdh. […] Calculation of standard deviation (SDΔCt=(SDtarget2+SDref2)1/2) and error bars (RQ1=2^(−(ΔΔCt+SDΔΔCt)), and RQ2=2^(−(ΔΔCt−SDΔΔCt))) was performed according to ABI technical literature Part Number 4371095 Rev B.

CCCC(CCC)C(=O)O [valproic acid]
lethal impact of miR-128 deficiency (lifespan) (miR-128-2−/− mice): prevented

miR-128: microRNA, UCACAGUGAACCGGUCUCUUU (SEQ ID NO: 1) (listed as RNA, chemistry not fully specified)
spontaneous recurrent seizures and premature death [1]: protects

B1: BDNF: brain-derived neurotrophic factor, inducer of miR-128 expression (protein, UniProt P23560 19-247, looked up)
Neurotrophic factor BDNF …: APMKEANIRGQGGLAYPGVRTHGTLESVNGPKAGSRGLTSLADTFEHVIEELLDEDQKVRPNEENNKDADLYTSRVMLSSQVPLEPPLLFLLEEYKNYLDAANMSMRVRRHSDPARRGELSVCDSISEWVTAADKKTAVDMSGGTVTVLEKVPVSKGQLKQYFYETKCNPMGYTKEGCRGIDKRHWNSQCRTTQSYVRALTMDSKKRIGWRFIRIDTSCVCTLTIKRGR
expression of immediate early gene FosB [2]: strong but transient inducer
expression of miR-128 [2]: stable increase
expression of miR-128 host gene Arpp21 [2]: stable increase
expression of neuron-specific miRNA miR-124a [2]: no effect
